In test [1] the target is EGFR-EGFP with deletion of the dimerization arm, residues 242 to 259 (human) (UniProt P00533). Nature of the test: single-molecule stepwise photobleaching (TIRF microscopy); EGFP fusions on the membrane of live Xenopus oocytes, without EGF; ~1 to ~5 molecules per um^2; room temperature; 20 Hz; 3% two-step baseline (Claudin-16) subtracted.
For test [2], the target named is Src13-GCN4-EGFRk: c-Src membrane localization sequence, coiled-coil segment of GCN4 joined to the N-terminus of the kinase domain of EGFR, EGFP or mCherry (UniProt P00533). In words: PIE-FCCS (pulsed-interleaved excitation fluorescence cross-correlation spectroscopy); control constructs with the c-Src membrane localization sequence, EGFP and mCherry fusions coexpressed; data collected previously on the same instrument and reproduced here; median fraction correlated fc.

Test [3] deals with Src13-GCN4: c-Src membrane localization sequence, coiled-coil segment of GCN4, EGFP or mCherry. Described as above.

Turning to “EGFR-EGFP with deletion of the dimerization arm, residues 242 to 259 (from UniProt P00533 25-1210) (receptor)”, the fraction of two-step photobleaching events (baseline subtracted) in test [1] is 9%. The substance “Src13-GCN4-EGFRk: c-Src membrane localization sequence, coiled-coil segment of GCN4 joined to the N-terminus of the kinase domain of EGFR, EGFP or mCherry (from UniProt P00533 712-979)” registered a fraction correlated fc (median) in test [2] of 0.23. For the substance “Src13-GCN4: c-Src membrane localization sequence, coiled-coil segment of GCN4, EGFP or mCherry”, the fraction correlated fc (median) in test [3] came out at 0.13.

Values taken from paper PMC4902571.
